T1: HisFLAG-PSF full length (UniProt P23246 1-707)
T1 construct: PSF (SFPQ), full length; pet15b with an inserted FLAG tag; also called PSF-FL; full length His-tagged PSF; source: E. coli Rosetta(DE3)pLysS, purified (Ni-NTA, SEC); not shown: His6, N-terminal, kept; FLAG, N-terminal, kept
T1 sequence (looked up): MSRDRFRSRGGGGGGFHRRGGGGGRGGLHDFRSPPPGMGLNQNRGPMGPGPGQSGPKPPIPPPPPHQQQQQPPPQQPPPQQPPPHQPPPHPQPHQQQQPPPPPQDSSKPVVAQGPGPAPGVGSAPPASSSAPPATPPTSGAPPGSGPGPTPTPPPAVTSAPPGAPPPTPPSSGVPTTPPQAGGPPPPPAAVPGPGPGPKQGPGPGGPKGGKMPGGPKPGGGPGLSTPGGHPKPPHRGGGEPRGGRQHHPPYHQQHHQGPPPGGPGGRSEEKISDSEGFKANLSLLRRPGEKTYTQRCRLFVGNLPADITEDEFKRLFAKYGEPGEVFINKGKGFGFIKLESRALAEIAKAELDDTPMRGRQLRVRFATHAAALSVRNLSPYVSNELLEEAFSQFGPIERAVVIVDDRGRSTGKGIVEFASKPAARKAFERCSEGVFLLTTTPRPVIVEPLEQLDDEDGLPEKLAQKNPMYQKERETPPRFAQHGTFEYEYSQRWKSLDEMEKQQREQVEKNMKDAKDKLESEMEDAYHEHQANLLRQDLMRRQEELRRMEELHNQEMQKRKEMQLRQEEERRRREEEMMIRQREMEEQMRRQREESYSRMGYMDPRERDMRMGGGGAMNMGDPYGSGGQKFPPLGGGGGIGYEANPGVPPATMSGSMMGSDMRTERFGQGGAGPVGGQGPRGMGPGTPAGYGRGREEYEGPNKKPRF

T2: HisFLAG-PSF exRRMs (266-484) (UniProt P23246 266-484)
T2 construct: also called HisFLAG-exRRMs; HFexRRM1+2; source: E. coli Rosetta(DE3)pLysS, purified (Ni-NTA, SEC); not shown: His6, N-terminal, kept; FLAG, N-terminal, kept
T2 sequence (looked up): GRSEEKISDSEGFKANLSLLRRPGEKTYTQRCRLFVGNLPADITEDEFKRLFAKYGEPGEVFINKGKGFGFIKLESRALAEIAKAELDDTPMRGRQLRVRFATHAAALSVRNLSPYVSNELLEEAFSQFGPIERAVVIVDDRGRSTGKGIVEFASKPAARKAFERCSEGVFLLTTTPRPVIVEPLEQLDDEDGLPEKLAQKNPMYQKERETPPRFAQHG

T3: PSF exRRM1 (human, UniProt P23246 266-365)
T3 sequence: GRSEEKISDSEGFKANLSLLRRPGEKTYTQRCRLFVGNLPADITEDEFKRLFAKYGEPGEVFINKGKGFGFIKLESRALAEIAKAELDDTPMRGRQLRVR

T4: PSF exRRMs (human, UniProt P23246 266-484)
T4 sequence: T2 sequence (looked up)

T5: PSF exRRM2 (human, UniProt P23246 366-484)
T5 sequence: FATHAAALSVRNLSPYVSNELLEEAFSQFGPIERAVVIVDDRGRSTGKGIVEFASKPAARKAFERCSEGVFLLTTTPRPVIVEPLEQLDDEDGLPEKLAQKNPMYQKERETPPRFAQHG

B1: GST-TRAPΔN (TRAP150 266-955) (domain or fragment, UniProt Q9Y2W1 266-955, looked up)
chain: RPSPVPKPSPPLSSTSQMGSTLPSGAGYQSGTHQGQFDHGSGSLSPSKKSPVGKSPPSTGSTYGSSQKEESAASGGAAYTKRYLEEQKTENGKDKEQKQTNTDKEKIKEKGSFSDTGLGDGKMKSDSFAPKTDSEKPFRGSQSPKRYKLRDDFEKKMADFHKEEMDDQDKDKAKGRKESEFDDEPKFMSKVIGANKNQEEEKSGKWEGLVYAPPGKEKQRKTEELEEESFPERSKKEDRGKRSEGGHRGFVPEKNFRVTAYKAVQEKSSSPPPRKTSESRDKLGAKGDFPTGKSSFSITREAQVNVRMDSFDEDLARPSGLLAQERKLCRDLVHSNKKEQEFRSIFQHIQSAQSQRSPSELFAQHIVTIVHHVKEHHFGSSGMTLHERFTKYLKRGTEQEAAKNKKSPEIHRRIDISPSTFRKHGLAHDEMKSPREPGYKAEGKYKDDPVDLRLDIERRKKHKERDLKRGKSRESVDSRDSSHSRERSAEKTEKTHKGSKKQKKHRRARDRSRSSSSSSQSSHSYKAEEYTEETEEREESTTGFDKSRLGTKDFVGPSERGGGRARGTFQFRARGRGWGRGNYSGNNNNNSNNDFQKRNREEEWDPEYTPKSKKYYLHDDREGEGSDKWVSRGRGRGAFPRGRGRFMFRKSSTSPKWAHDKFSGEEGEIEDDESGTENREEKDNIQPTTE
notes: pGEX-6-P1; also called GST-TRAP150ΔN; TRAP150-ΔN; source: E. coli Rosetta(DE3)pLysS, purified (glutathione sepharose, SEC); not shown: GST, N-terminal, kept
B2: HisFLAG-PSF ΔRRM2 (natural protein)
chain: MSRDRFRSRGGGGGGFHRRGGGGGRGGLHDFRSPPPGMGLNQNRGPMGPGPGQSGPKPPIPPPPPHQQQQQPPPQQPPPQQPPPHQPPPHPQPHQQQQPPPPPQDSSKPVVAQGPGPAPGVGSAPPASSSAPPATPPTSGAPPGSGPGPTPTPPPAVTSAPPGAPPPTPPSSGVPTTPPQAGGPPPPPAAVPGPGPGPKQGPGPGGPKGGKMPGGPKPGGGPGLSTPGGHPKPPHRGGGEPRGGRQHHPPYHQQHHQGPPPGGPGGRSEEKISDSEGFKANLSLLRRPGEKTYTQRCRLFVGNLPADITEDEFKRLFAKYGEPGEVFINKGKGFGFIKLESRALAEIAKAELDDTPMRGRQLRVRFATHAGGSGHMLEQLDDEDGLPEKLAQKNPMYQKERETPPRFAQHGTFEYEYSQRWKSLDEMEKQQREQVEKNMKDAKDKLESEMEDAYHEHQANLLRQDLMRRQEELRRMEELHNQEMQKRKEMQLRQEEERRRREEEMMIRQREMEEQMRRQREESYSRMGYMDPRERDMRMGGGGAMNMGDPYGSGGQKFPPLGGGGGIGYEANPGVPPATMSGSMMGSDMRTERFGQGGAGPVGGQGPRGMGPGTPAGYGRGREEYEGPNKKPRF
notes: PSF (SFPQ) residues 1-370; linker joining the N- and C-terminal portions; PSF (SFPQ) residues 450-707; source: E. coli Rosetta(DE3)pLysS, purified (Ni-NTA, SEC); not shown: His6, N-terminal, kept; FLAG, N-terminal, kept
B3: GST-TRAP150 686–755 (PSF-interacting domain, PID) (domain or fragment, UniProt Q9Y2W1 686-755, looked up)
chain: FRKHGLAHDEMKSPREPGYKAEGKYKDDPVDLRLDIERRKKHKERDLKRGKSRESVDSRDSSHSRERSAE
notes: also called GST-TRAP(PID); TRAP150 PID; source: E. coli Rosetta(DE3)pLysS, purified (glutathione sepharose, SEC); not shown: GST, N-terminal, kept
B4: Gb1-tagged TRAP150 686–755 (TRAP-PID) (domain or fragment, UniProt Q9Y2W1 686-755, looked up)
chain: B3 chain
notes: 6xHis + GB1 fusion vector pGβ1; also called Gb1-tagged construct of the TRAP-PID; source: E. coli Rosetta(DE3)pLysS, purified (Ni-NTA, SEC)
B5: HisFLAG-PSF ΔRRM1 (natural protein)
chain: MSRDRFRSRGGGGGGFHRRGGGGGRGGLHDFRSPPPGMGLNQNRGPMGPGPGQSGPKPPIPPPPPHQQQQQPPPQQPPPQQPPPHQPPPHPQPHQQQQPPPPPQDSSKPVVAQGPGPAPGVGSAPPASSSAPPATPPTSGAPPGSGPGPTPTPPPAVTSAPPGAPPPTPPSSGVPTTPPQAGGPPPPPAAVPGPGPGPKQGPGPGGPKGGKMPGGPKPGGGPGLSTPGGHPKPPHRGGGEPRGGRQHHPPYHQQHHQGPPPGGPGGRSEEKISDSEGFKANLSLLRRPGEKTYTQRCRGGSGHMATHAAALSVRNLSPYVSNELLEEAFSQFGPIERAVVIVDDRGRSTGKGIVEFASKPAARKAFERCSEGVFLLTTTPRPVIVEPLEQLDDEDGLPEKLAQKNPMYQKERETPPRFAQHGTFEYEYSQRWKSLDEMEKQQREQVEKNMKDAKDKLESEMEDAYHEHQANLLRQDLMRRQEELRRMEELHNQEMQKRKEMQLRQEEERRRREEEMMIRQREMEEQMRRQREESYSRMGYMDPRERDMRMGGGGAMNMGDPYGSGGQKFPPLGGGGGIGYEANPGVPPATMSGSMMGSDMRTERFGQGGAGPVGGQGPRGMGPGTPAGYGRGREEYEGPNKKPRF
notes: PSF (SFPQ) residues 1-298; linker joining the N- and C-terminal portions; PSF (SFPQ) residues 367-707; source: E. coli Rosetta(DE3)pLysS, purified (Ni-NTA, SEC); not shown: His6, N-terminal, kept; FLAG, N-terminal, kept
B6: SRL-1 (ssRNA)
RNA: AACCAAGAGGUUUCUCGCGUAUUUCUCUCAUUUUUUUACCCAUUUUACAAAUUUUUUUUGCUAUUUGAGCCAUAGUACCCAUUAAUAGGUCUCGUCCAUUCCCUUGUUUUUUUUUUAUUGUUUCAAUUACACUACAUAAUUAAAAAUCACAUCACUUUCACUCUCACCUUAGUCGUUCUUUAUCAACCAAAAAUAAAAAAAUGCUUCAAUCCGUUGUCUU
B7: GST-TRAP150 580–755 (domain or fragment, UniProt Q9Y2W1 580-755, looked up)
chain: LARPSGLLAQERKLCRDLVHSNKKEQEFRSIFQHIQSAQSQRSPSELFAQHIVTIVHHVKEHHFGSSGMTLHERFTKYLKRGTEQEAAKNKKSPEIHRRIDISPSTFRKHGLAHDEMKSPREPGYKAEGKYKDDPVDLRLDIERRKKHKERDLKRGKSRESVDSRDSSHSRERSAE
notes: source: E. coli Rosetta(DE3)pLysS, purified (glutathione sepharose, SEC); not shown: GST, N-terminal, kept
B8: MKK7 (ssRNA)
RNA: CCUCCUCGUUUAUGAUUUGAUUUCUUUUCUUUUGGACGAAUCGGUCGUUUCUGUUGUGAUUUAUCGUGGUGUUGUUUUUUUCUUCCUUUUCCCCAUCCAG

Key:
HisFLAG-PSF full length = molecular target: T1, HisFLAG-PSF full length; assay: pull-down; 40 ug GST-tagged bait on glutathione sepharose 4B beads; prey incubated 1.5 h at 4°C in PBS; washes with PBS supplemented with 300 mM NaCl; western blot; settings: both partners purified
[1] = molecular target: B1; assay: as above; settings: both partners purified
[2] = molecular target: T2, HisFLAG-PSF exRRMs (266-484); assay: as above; settings: both partners purified
[3] = molecular target: T2, HisFLAG-PSF exRRMs (266-484); assay: pull-down; Gb1-tagged TRAP150 686-755 precipitated with IgG beads; HisFLAG-exRRMs detected; settings: both partners purified
PSF exRRM1 = molecular target: T3, PSF exRRM1; assay: EMSA; unmeasurable affinity; UV crosslinking: 12 mM Tris pH 7.5, 120 mM NaCl, 3 mM MgCl2, 1 mM ATP, 20 mM phosphocreatine, 0.1 mM EDTA, 12% glycerol, 1.3% PVA, 25 ng/ul yeast tRNA, 20 ng/ul; settings: protein: recombinant; tags: 6xHis-FLAG N-term; label: uniform 32P
PSF exRRMs = molecular target: T4, PSF exRRMs; assay: EMSA; UV crosslinking: 12 mM Tris pH 7.5, 120 mM NaCl, 3 mM MgCl2, 1 mM ATP, 20 mM phosphocreatine, 0.1 mM EDTA, 12% glycerol, 1.3% PVA, 25 ng/ul yeast tRNA, 20 ng/ul; settings: protein: recombinant; tags: 6xHis-FLAG N-term; label: uniform 32P
PSF exRRM2 = molecular target: T5, PSF exRRM2; assay: as above; settings: protein: recombinant; tags: 6xHis-FLAG N-term; label: uniform 32P

Binder: B1
binding result (HisFLAG-PSF full length): binds

Binder: B2
binding result [1]: binds

Binder: B3
binding result [2]: binds

Binder: B4
binding result [3]: binds

Binder: B5
binding result [1]: binds

Binder: B6
binding result (PSF exRRM1): no binding | binding result (PSF exRRMs): binds | binding result (PSF exRRM2): binds

Binder: B7
binding result [2]: binds

Binder: B8
binding result (PSF exRRM1): no binding | binding result (PSF exRRMs): binds | binding result (PSF exRRM2): binds
